Where “and” joins values, the source holds several entries; their conditions need not be identical. Equal entries are not always repeated.
Legend:
Assay in all cases: BLI; 6×His-ZapC or its mutants (0.5 µM) loaded on Ni-NTA biosensors, untagged FtsZ or its variants in solution; Octet-Red96, 30°C, 1× Pol buffer (50 mM HEPES-NaOH pH 6.8, 50 mM KCl, 10 mM MgCl2); apparent Kd from the signal at the end of association against concentration, one-site fit; three repeats with mean (X) and SD
Details in all cases: both partners purified
[1] = target: T1, FtsZ D360Y (untagged) (Escherichia coli, UniProt P0A9A6 1-383, D360Y)
T1 construct: FtsZ of Escherichia coli with D360Y (CTL); Derivative of pLY17 by site-directed mutagenesis; source: E. coli BL21(DE3), plasmid pLY339, purified (Ni-NTA); 6×His-SUMO tag removed with Ulp1; not shown: 6×His-SUMO, N-terminal, cleaved
T1 sequence (looked up): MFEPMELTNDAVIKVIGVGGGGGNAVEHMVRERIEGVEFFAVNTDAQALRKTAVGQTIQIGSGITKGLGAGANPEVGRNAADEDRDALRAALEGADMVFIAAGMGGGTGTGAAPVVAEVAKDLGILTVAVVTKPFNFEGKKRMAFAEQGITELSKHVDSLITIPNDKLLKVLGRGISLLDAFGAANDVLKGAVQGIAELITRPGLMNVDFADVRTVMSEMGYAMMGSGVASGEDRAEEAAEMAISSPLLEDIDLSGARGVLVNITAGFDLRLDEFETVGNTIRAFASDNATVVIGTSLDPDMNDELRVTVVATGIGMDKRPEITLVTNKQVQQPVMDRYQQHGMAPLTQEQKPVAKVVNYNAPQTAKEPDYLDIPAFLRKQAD

[2] = target: T2, FtsZ A376T (untagged) (Escherichia coli, UniProt P0A9A6 1-383, A376T)
T2 construct: FtsZ of Escherichia coli with A376T (CTP); Derivative of pLY17 by site-directed mutagenesis; source: E. coli BL21(DE3), plasmid pLY22, purified (Ni-NTA); 6×His-SUMO tag removed with Ulp1; not shown: 6×His-SUMO, N-terminal, cleaved
T2 sequence (looked up): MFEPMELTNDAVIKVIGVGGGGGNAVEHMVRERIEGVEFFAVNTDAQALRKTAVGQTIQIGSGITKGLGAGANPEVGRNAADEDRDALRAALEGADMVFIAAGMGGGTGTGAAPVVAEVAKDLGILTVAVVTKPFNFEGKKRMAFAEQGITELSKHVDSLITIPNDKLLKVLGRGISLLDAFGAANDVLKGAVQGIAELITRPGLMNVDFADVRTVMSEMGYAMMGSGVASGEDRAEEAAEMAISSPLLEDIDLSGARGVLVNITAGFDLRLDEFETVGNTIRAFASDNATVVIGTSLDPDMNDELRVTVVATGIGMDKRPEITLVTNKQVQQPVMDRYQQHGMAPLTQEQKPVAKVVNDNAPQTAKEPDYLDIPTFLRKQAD

[3] = target: T3, FtsZ 1-330 (untagged) (Escherichia coli, UniProt P0A9A6 1-330)
T3 construct: FtsZ of Escherichia coli, residues 1-330; lacks most of the CTL and the CTP; Primers BsaI-out-F and 330XbaI-out-R; forward primer starts at codon 2; source: E. coli BL21(DE3), plasmid pLY340, purified (Ni-NTA); 6×His-SUMO tag removed with Ulp1; not shown: 6×His-SUMO, N-terminal, cleaved
T3 sequence (looked up): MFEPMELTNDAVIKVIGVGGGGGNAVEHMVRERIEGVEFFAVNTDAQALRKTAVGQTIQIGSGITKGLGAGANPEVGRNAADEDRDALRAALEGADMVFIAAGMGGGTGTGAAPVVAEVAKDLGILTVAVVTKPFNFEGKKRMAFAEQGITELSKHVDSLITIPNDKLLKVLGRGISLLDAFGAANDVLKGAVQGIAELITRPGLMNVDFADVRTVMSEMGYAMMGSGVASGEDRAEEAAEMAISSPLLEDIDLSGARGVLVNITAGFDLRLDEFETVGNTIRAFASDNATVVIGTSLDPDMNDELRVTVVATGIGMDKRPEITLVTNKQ

[4] = target: T4, FtsZ 1-370 (untagged) (Escherichia coli, UniProt P0A9A6 1-370)
T4 construct: FtsZ of Escherichia coli, residues 1-370; lacks the CTP; Primers BsaI-out-F and 370XbaI-out-R; forward primer starts at codon 2; source: E. coli BL21(DE3), plasmid pLY341, purified (Ni-NTA); 6×His-SUMO tag removed with Ulp1; not shown: 6×His-SUMO, N-terminal, cleaved
T4 sequence (looked up): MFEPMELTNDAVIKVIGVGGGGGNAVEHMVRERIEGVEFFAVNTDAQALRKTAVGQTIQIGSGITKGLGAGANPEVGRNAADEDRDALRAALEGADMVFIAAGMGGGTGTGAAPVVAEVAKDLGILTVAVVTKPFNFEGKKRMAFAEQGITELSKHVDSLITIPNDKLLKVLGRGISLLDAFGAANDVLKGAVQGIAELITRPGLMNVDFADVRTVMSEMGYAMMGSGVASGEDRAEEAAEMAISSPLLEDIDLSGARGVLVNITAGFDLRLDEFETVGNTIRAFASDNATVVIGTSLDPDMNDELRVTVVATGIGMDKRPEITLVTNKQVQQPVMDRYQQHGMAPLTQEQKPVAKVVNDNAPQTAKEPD

Kd [1]: 573 nM and 823 nM and 735 nM and 710 nM
Kd [2]: 859 nM and 778 nM and 821 nM and 819 nM
Kd [3]: 1610 nM and 1810 nM and 1590 nM and 1670 nM
Kd [4]: 1540 nM and 1190 nM and 1260 nM and 1330 nM
B1: 6×His-ZapC (natural protein)
chain: not shown
notes: ZapC, FtsZ-associated protein of Escherichia coli; Construction of pSD323 is not described; also called His-tagged ZapC; source: E. coli, plasmid pSD323 (pQE80, Plac::6×His-ZapC), purified (Ni-NTA); not shown: His6, N-terminal, kept
